Biological target: the molecule itself
Experiment: crystal structure

B1: Nucleoside diphosphate kinase B (NDPKB), human (enzyme)
chain: ANLERTFIAIKPDGVQRGLVGEIIKRFEQKGFRLVAMKFLRASEEHLKQHYIDLKDRPFFPGLVKYMNSGPVVAMVWEGLNVVKTGRVMLGETNPADSKPGTIRGDFCIQVGRNIIHGSDSVKSAEKEISLWFKPEELVDYKSCAHDWVYE
modifications: phosphorylated histidine at 118 (His 118-P) in the crystal
For B1, the “stoichiometry N” value was 6.
